Assay results reported in US20090264512, “NUCLEIC ACID LIGANDS CAPABLE OF BINDING TO […] OR INTERNALIN A” (published 2009).

T1: Internalin A (InlA) (Listeria monocytogenes, UniProt P0DJM0 P0DJM0:36-770)
T1 sequence: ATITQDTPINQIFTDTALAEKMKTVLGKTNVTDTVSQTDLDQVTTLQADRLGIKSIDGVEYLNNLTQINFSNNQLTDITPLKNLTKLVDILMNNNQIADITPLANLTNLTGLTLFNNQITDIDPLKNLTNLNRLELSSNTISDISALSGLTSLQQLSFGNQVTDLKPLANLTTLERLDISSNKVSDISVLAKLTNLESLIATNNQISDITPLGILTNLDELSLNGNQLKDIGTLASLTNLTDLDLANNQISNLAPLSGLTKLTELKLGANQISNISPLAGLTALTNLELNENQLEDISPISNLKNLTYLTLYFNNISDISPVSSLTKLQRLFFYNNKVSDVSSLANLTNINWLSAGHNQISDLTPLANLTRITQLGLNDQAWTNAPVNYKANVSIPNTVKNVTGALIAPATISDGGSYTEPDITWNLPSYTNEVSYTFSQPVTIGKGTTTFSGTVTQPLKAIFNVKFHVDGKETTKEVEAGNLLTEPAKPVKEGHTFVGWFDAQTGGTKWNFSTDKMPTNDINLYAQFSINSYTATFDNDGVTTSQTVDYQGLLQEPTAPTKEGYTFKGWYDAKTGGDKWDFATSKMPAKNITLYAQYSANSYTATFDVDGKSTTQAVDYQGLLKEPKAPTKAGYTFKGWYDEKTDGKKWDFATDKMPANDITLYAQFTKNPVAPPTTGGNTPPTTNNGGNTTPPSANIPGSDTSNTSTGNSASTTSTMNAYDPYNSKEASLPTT


Tests used:
Internalin A (InlA) [1] = target: T1, Internalin A (InlA); assay: competition; competitive ELISA, sigmoidal fit; conditions: tags: His-tag
Method: A specified amount of internalin A (500 ng) was coated on the plate. 5 ng/uL biotinylated aptamer A8 (SEQ ID NO:21) was incubated with increasing amounts of non-biotinylated aptamer A8 and then applied to the coated plates. Using GraphPad Prism 4 software, the Sigmoidal model (equation: a+(b−a)/(1+10̂(x−c))) was used to determine EC50.

Internalin A (InlA) [2] = target: T1, Internalin A (InlA); assay: ELONA; strong ELISA signal compared to library; conditions: tags: His-tag
Method: A nickel-coated microplate (HisSorb, Qiagen) was used to bind 500 ng his-tagged inlA, peptide D or 0610 (Listeria monocytogenes-specific non-internalin cell wall protein) to the plate as per manufacturer's directions. Biotinylated aptamer or aptamer library (5 ng/μL) was heated to 95° C. for 3 minutes and quickly cooled to 4° C. for 5 minutes before application to each well. The biotinylated aptamer or aptamer library was incubated with the bound proteins in the HisSorb plate overnight at 4° C. with gentle shaking. Wells were then washed four times with 200 μL PBS-T. Streptavidin-horseradish peroxidase was added to the wells for 30 minutes at room temperature with gentle shaking. The wells were washed as described previously before development with TMB (Pierce). The reactions were stopped with 1M H₂SO₄ and absorbance was measured at 450 nm using a ThermoMax microplate reader (Molecular Devices). In FIG. 6, the initial aptamer library was used as a negative control, and the data represents the average±S.D. of n=3. […] The amount of selected aptamer bound to the particular proteins was determined by absorbance measured. The data represents the average±S.D. of n=3.

Row | Binder | EC50 (Internalin A (InlA) [1]) [nM] | binding result (Internalin A (InlA) [2])
1 | ATCCATGGGGCGGAGATGAGGGGGAGGAGGGCGGGTACCCGGTTGAT (ssDNA) [A8] | 544 | 
2 | ATCTAGGACTGGGTGGGAAGGGATGGGAAAAATGTCCGCGCCTCGAT (ssDNA) [InlA aptamer SEQ 22] |  | binds
3 | ATCAGCAACAAGTGTGGGTAAGGGGAGGGCGGGAATGGGATGATGAT (ssDNA) [InlA aptamer SEQ 23] |  | binds
4 | ATCGGATGTGGGCAGGGGGGGGTGGGAAACGATTACAGACACAAGAT (ssDNA) [InlA aptamer SEQ 24] |  | binds
5 | ATCGGGTTATAGTTAGCGGGTAGGGGAGGGAGGGTAGATAGCTCGAT (ssDNA) [InlA aptamer SEQ 25] |  | binds
